Source: patent publication US11692007B2, “Amino deprotection using 3-(diethylamino)propylamine” (priority 2021, dated 2023)
Like-named read-outs stand apart in the source and are kept apart here. Marks after values point to notes of the source that are not given here. Non-standard residues stand in square brackets, D forms with d. Residues, ends and D or L forms follow the SMILES beside them. *: point of attachment. dPhe(4-NHCONH2) = NC(=O)Nc1ccc(C[C@@H](N)C(=O)O)cc1; Dihydroorotyl(S) = O=C1C[C@@H](C(=O)*)NC(=O)N1; dPhe(4-Cl) = N[C@H](Cc1ccc(Cl)cc1)C(=O)O; Phe(4-NH2) = Nc1ccc(C[C@H](N)C(=O)O)cc1; d2Nal = N[C@H](Cc1ccc2ccccc2c1)C(=O)O; Lys(iPr) = CC(C)NCCCC[C@H](N)C(=O)O; d3Pal = N[C@H](Cc1cccnc1)C(=O)O

Experiments:
rat = settings: in vivo; cited from earlier work
[1] = for Hydantoin impurity (VI) at RRT 1.03 / purity (HPLC) / specified impurity RRT 0.85 (X, unknown): RT; for Hydantoin impurity (VI) at RRT 1.03: at both t0 and t3 (24 h); for specified impurity RRT 0.85 (X, unknown): not present at t0
Experimental: Degarelix was kept in a solution of 10% DEAPA in DMF for 24 h to simulate conditions corresponding to those used for removal of Fmoc group during full SPPS. Samples were analyzed by HPLC at four checkpoints up to 24 h and the four HPLC profiles obtained were compared as shown in FIG. 3 and FIG. 4 (for detailed experimental procedure, see Example 7).
Example 7: HPLC analyses were performed on Agilent 1260 Infinity II system, using columns Waters Cortecs C18 2.7 μm, 4.6×150 mm; temperature: 30° C.; injection volume: 10 μL, UV: 245 nm; pH 5.5 Phosphate Buffer: 25 mM Potassium Phosphate to pH 5.5; pH 3.5 Phosphate Buffer: 25 mM Potassium Phosphate to pH 3.5; mobile phases: 75% pH 5.5 Buffer: 25% CH3CN (A); 65% pH 3.5 Buffer: 35% CH3CN (B); flow: 1.0 mL/min, sample concentration 0.5 mg/ml; gradient: 0-5 min 0% B, 5-45 min […], 45-46 min 100-0% B, 46-60 min 0% B.
The stability at RT was followed for 24 h at four check points, i.e. t0, 1 h (t1), 4 h (t2) and 24 h (t3).
Superimposed HPLC profiles are shown in FIG. 3 (Test 1) and FIG. 4 (Test 2).

[2] = Experimental: A sample of Degarelix, as a lyophilized powder of about 99% of purity, was dissolved at a concentration of 17 g/L in DMF with 10% of piperidine, TMG, TBA or DEAPA. The stability at RT was measured by HPLC at t=0 (t0), t=8 hr (t1), and t=24 hr (t3) using an Agilent 1260 Infinity II system, using a column Waters Xterra Shield RP18, 3.5 μm, 4.6×150 mm; temperature: 25° C.; sample concentration 0.5 mg/mL; injection volume: 10 μL; flow: 0.7 mL/min; buffer: 65% 40 mM ammonium acetate, pH 10:35% ACN; elution: isocratic, 0-30 min 100% buffer; detection: UV 245 nm.
mice = settings: acute oral toxicity; cited from earlier work
rabbits = settings: acute oral toxicity; cited from earlier work
rats = settings: acute oral toxicity; cited from earlier work
[3] = Stress stability test of resin-bound H-Ala-Lys-Asp-Gly-Tyr-Ile-OH with piperidine, DEAPA, TMG and TBA in DMF or NBP (aspartimide formation, HPLC); format: physicochemical
Experimental: A stress test was then performed whereby the model peptide was submitted to basic conditions to simulate repeated alpha-amino deprotection cycles. Resin-bound H-Ala-Lys-Asp-Gly-Tyr-Ile-OH (still bearing side-chain protections) was treated in parallel with 20% piperidine, 10% DEAPA, 5% TMG or 20% TBA solutions, in DMF or NBP, for 4 h at RT.
As shown in Scheme 2 above, the formation of the aspartimide side-product may be followed by nucleophilic attack onto the aspartimide ring with formation of further by-products, like amine-adducts (amine-mediated ring-opening) and alpha- and beta-peptides (water-mediated ring-opening).
The hexapeptide samples obtained after such treatments with the Fmoc cleavage solutions were analyzed by HPLC and the results are shown in Table 1 (for detailed experimental procedure, see Example 6).
In Table 1, Δ Asp indicates the amount of additional overall aspartimide impurities (comprising piperidides by-products) resulting from the stress test relative to the initial aspartimide amount (2.6%).
Examples 1-6: HPLC-MS analyses were performed on Agilent 1260 Infinity II system coupled to an electrospray ionization mass spectrometer (positive-ion mode, m/z=100-1500, fragmentor 30 V), using columns Agilent Zorbax-SB-C18 5 μm, 250×4.6 mm or Phenomenex Luna C18 5 μm, 250×4.6 mm; temperature: 25° C.; injection volume: 10 μL, UV: 220 nm, mobile phases: H2O+0.08% TFA (A) and CH3CN+0.08% TFA (B), flow: 0.5 mL/min or 1.0 mL/min.
100 mg of dry resin H-Ala-Lys-Asp-Gly-Tyr-Ile-Trt-PS (prepared as described in Example 2) were swelled in 2 mL of DMF or NBP for 30 minutes. The resin was filtered and a 2 mL solution of 10% DEAPA (or 20% piperidine, 5% TMG, 20% TBA) in DMF or NBP was added to the resin and stirred for 4 hours at RT. The resin was filtered, washed with DMF or NBP (3×2 mL) and with DCM (3×2 mL). Dry peptide resin was suspended in 3 mL of the mixture TFA/TIS/H2O (90/5/5 v/v/v) and stirred for 2 h. The resin was filtered off and diisopropylether (10 mL) cooled to 4° C. was added to the solution. The peptide was filtered and dried in vacuo to obtain crude H-Ala-Lys-Asp-Gly-Tyr-Ile-OH (II) and aspartimide impurity (III) in different ratios according to the used conditions.
Table 1 in the description lists the results. ΔAsp indicates the difference between the aspartimide amount formed after stress tests (including piperidides if present) and that arising from the hexapeptide synthesis (2.6%, see Example 2).
HPLC-MS analysis gradient: 0-30 min 10-40% B; flow: 0.5 mL/min.

[4] = Test 1, about 170 g/L in DMF with 10% DEAPA, t3 (24 h)
[5] = Test 2, about 17 g/L in DMF with 10% DEAPA, t3 (24 h)
[6] = 24 hr at RT, 10% DEAPA in DMF, 17 g/L
[7] = 24 hr at RT, 10% TBA in DMF, 17 g/L
[8] = 24 hr at RT, 10% TMG in DMF, 17 g/L
[9] = 24 hr at RT, 10% piperidine in DMF, 17 g/L
[10] = duration 0, base solution none, 17 g/L in DMF
[11] = 10% DEAPA in DMF, 4 h at RT, resin-bound
[12] = 10% DEAPA in NBP, 4 h at RT, resin-bound
[13] = 20% TBA in DMF, 4 h at RT, resin-bound
[14] = 20% TBA in NBP, 4 h at RT, resin-bound
[15] = 20% piperidine in DMF, 4 h at RT, resin-bound
[16] = 20% piperidine in NBP, 4 h at RT, resin-bound
[17] = starting point, after synthesis in DMF with 20% pip, before stress test

## CCN(CC)CCCN [DEAPA, 3-(diethylamino)propylamine]
rat
  LD50: 830 mg/kg

## CC(=O)N[C@H](Cc1ccc2ccccc2c1)C(=O)N[C@H](Cc1ccc(Cl)cc1)C(=O)N[C@H](Cc1cccnc1)C(=O)N[C@@H](CO)C(=O)N[C@@H](Cc1ccc(NC(=O)[C@@H]2CC(=O)NC(=O)N2)cc1)C(=O)N[C@H](Cc1ccc(NC(N)=O)cc1)C(=O)N[C@@H](CC(C)C)C(=O)N[C@@H](CCCCNC(C)C)C(=O)N1CCC[C@H]1C(=O)N[C@H](C)C(N)=O [Degarelix, Ac-D-Nal-D-Cpa-D-Pal-Ser-Aph(Hor)-D-Aph(Cbm)-Leu-Lys(iPr)-Pro-D-Ala-NH2] (Ac-[d2Nal][dPhe(4-Cl)][d3Pal]S[Phe(4-NH2)](Dihydroorotyl(S))[dPhe(4-NHCONH2)]L[Lys(iPr)]P[dA]-NH2)
[1]; 10% DEAPA in DMF, up to 24 h
  degradation of degarelix: No significant degradation
  increase of hydantoin impurity: no increase
[1]; Test 1, about 170 g/L in DMF with 10% DEAPA
  Hydantoin impurity (VI) at RRT 1.03: 0.10%
[1]; Test 1, about 170 g/L in DMF with 10% DEAPA, t0
  purity (HPLC): 99.17%
[1]; [4]
  purity (HPLC): 99.10%
  specified impurity RRT 0.85 (X, unknown): 0.06%
[1]; Test 2, about 17 g/L in DMF with 10% DEAPA
  Hydantoin impurity (VI) at RRT 1.03: 0.09%
[1]; Test 2, about 17 g/L in DMF with 10% DEAPA, t0
  purity (HPLC): 99.18%
[1]; [5]
  purity (HPLC): 99.10%
  specified impurity RRT 0.85 (X, unknown): 0.04%
[2]; [6]
  Degarelix %: 99.97%
  Hydantoin VI %: 0.03%
[2]; [7]
  Degarelix %: 99.96%
  Hydantoin VI %: 0.04%
[2]; [8]
  Degarelix %: 98.7%
  Hydantoin VI %: 1.3%
[2]; [9]
  Degarelix %: 99.96%
  Hydantoin VI %: 0.04%
[2]; after 24-hours treatment with DEAPA (10% in DMF)
  amount of hydantoin impurity (VI): unchanged
[2]; [10]
  Degarelix %: 99.97%
  Hydantoin VI %: 0.03%

## C1CCNCC1 [piperidine]
mice
  LD50: 30 mg/kg
rabbits
  LD50: 145 mg/kg
rats
  LD50: 400 mg/kg

## H-Ala-Lys-Asp-Gly-Tyr-Ile-OH (H-AKDGYI-OH) [III]
[3]; 5% TMG in DMF, 4 h at RT, resin-bound
  Aspartimide (IV) (A %): 85.5 A %
[3]; 5% TMG in DMF, 4 h at RT, resin-bound, sum of alpha- and beta-peptide
  III (A %): 14.5^a A %
[3]; 5% TMG in DMF, 4 h at RT, relative to initial 2.6%
  Δ Asp (A %): 82.9 A %
[3]; 5% TMG in NBP, 4 h at RT, resin-bound
  Aspartimide (IV) (A %): 72.9 A %
[3]; 5% TMG in NBP, 4 h at RT, resin-bound, sum of alpha- and beta-peptide
  III (A %): 27.1^a A %
[3]; 5% TMG in NBP, 4 h at RT, relative to initial 2.6%
  Δ Asp (A %): 70.3 A %
[3]; [11]
  Aspartimide (IV) (A %): 10.1 A %
  III (A %): 89.9 A %
[3]; 10% DEAPA in DMF, 4 h at RT, relative to initial 2.6%
  Δ Asp (A %): 7.5 A %
[3]; [12]
  Aspartimide (IV) (A %): 4.2 A %
  III (A %): 95.8 A %
[3]; 10% DEAPA in NBP, 4 h at RT, relative to initial 2.6%
  Δ Asp (A %): 1.6 A %
[3]; [13]
  Aspartimide (IV) (A %): 29.3 A %
  III (A %): 70.7 A %
[3]; 20% TBA in DMF, 4 h at RT, relative to initial 2.6%
  Δ Asp (A %): 26.7 A %
[3]; [14]
  Aspartimide (IV) (A %): 20.0 A %
  III (A %): 80.0 A %
[3]; 20% TBA in NBP, 4 h at RT, relative to initial 2.6%
  Δ Asp (A %): 17.4 A %
[3]; [15]
  Aspartimide (IV) (A %): 7.2 A %
  III (A %): 86.5 A %
  Piperidides (V) (A %): 6.3 A %
[3]; 20% piperidine in DMF, 4 h at RT, additional aspartimide impurities incl. piperidides relative to initial 2.6%
  Δ Asp (A %): 10.9 A %
[3]; [16]
  Aspartimide (IV) (A %): 7.1 A %
  III (A %): 90.0 A %
  Piperidides (V) (A %): 2.9 A %
[3]; 20% piperidine in NBP, 4 h at RT, incl. piperidides, relative to initial 2.6%
  Δ Asp (A %): 7.4 A %
[3]; [17]
  Aspartimide (IV) (A %): 2.6 A %
  III (A %): 97.4 A %
